Laboratory results published in publication PMC5018458 (Bioorganic & medicinal chemistry letters, 2016).

How the values were obtained:
M21 human melanoma cells = experiment: Cellular efflux in M21 human melanoma cells; assay type: cell-based; details: M21 cells loaded 2 h at 37 °C, then 2 h of incubation in the culture medium
[1] = test system: M21 human melanoma-xenografted nude mice; experiment: Biodistribution in M21 human melanoma-xenografted nude mice; assay type: in vivo
[2] = test system: M21 human melanoma xenografts; experiment: SPECT/CT imaging of M21 human melanoma-xenografted nude mouse; assay type: in vivo; details: about 7.4 MBq iv tail vein, 2 h post-injection
B16/F1 melanoma = details: 2 h post-injection; cited from earlier work

## hydrazinonicotinamide-8-aminooctanoic acid-Nle-c[Asp-His-DPhe-Arg-Trp-Lys]-CONH2 (sidechain bridge or staple) [^99mTc(EDDA)-HYNIC-AocNle-CycMSHhex]
M21 human melanoma cells
  Activity remained inside the cells (cellular efflux): 66%
[1]; 0.5 h post-injection
  Uptake ratio Tumor/kidney: 0.40
[1]; 2 h post-injection
  Uptake ratio Tumor/kidney: 0.71
[1]; 2 h post-injection, 10 μg (6.07 nmol) NDP-MSH co-injected
  Tumor uptake blocked by co-injection of non-radioactive NDP-MSH: 80%
[1]; 2 h post-injection, NDP blockade (co-injection of 10 μg NDP-MSH)
  Uptake ratio Tumor/kidney: 0.17
[1]; 4 h post-injection
  Uptake ratio Tumor/kidney: 0.95
[1]; 24 h post-injection
  Uptake ratio Tumor/kidney: 1.13
[1]; mouse, in vivo
  Intestines, percent injected dose: 1.65±0.73 %ID
  Urine, percent injected dose (urinary clearance): 92.23±1.52 %ID
[2]
  Visualization of M21 human melanoma xenografts by SPECT/CT: clearly visualized
B16/F1 melanoma
  Visualization of B16/F1 melanoma lesions by SPECT/CT: clearly visualized
